Here are results for 167 variants from the RNAGym collection of RNA variant scans (doi:10.1073/pnas.2313332121).

The labels stand for the following.
B1: TPR t1 (parent)
chain: GACCAAUCUGCCCUCAGAGCUCGAGAACAUCUUCGGAUGCAGAGGAGGCAGGCUUCGGUGGCGCGAUAGCGCCAACGUCCUCAACCUCCAAUGCAUCCCACCACAUGAUGAUGCCUGAAGAGCCUUGGUUUUUUG

In the series the parent is B1. Description: polymerase ribozyme fitness, log enrichment relative to wild type (log ratio); higher = more active; in vitro selection for triplet polymerase activity. The procedure, abridged:
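Fitness is a logarithmic measure of how a genotype enriched relative to the wild type, with replicate averages weighted by inverse variance. The logarithm uses base 2, and enrichment came from Illumina sequencing of input and output libraries. Those libraries were PCR-built, transcribed mutants of each subunit of a heterodimeric triplet polymerase ribozyme, passed through one triplicate in vitro selection round that included frozen incubation at −7 °C, gel excision of extended constructs and streptavidin-bead capture. Genotypes were kept only if they had ≥10 input reads and ≥1 read per output.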
Take G61U G107U: the “polymerase ribozyme fitness (log ratio)” value was -4.51.
The result for G61C C123A reads -0.578; that for G61U C82G C94U, -0.714; that for G60U U87G U129G, -0.951.
The result for G60C G117C A121C reads -4.85; that for G61A C79A, -2.09; that for G61A U67A, -6.59.
Consider G61U C79A, for which the “polymerase ribozyme fitness (log ratio)” value is -0.952.
The result for G61A G113A reads -0.325.
The result for G60U U78A C89G reads -1.87; that for G61C C88U, -1.5.
For G61A C98U the value was -0.37; for G61A C98A, -4.75; for G61C A66C G135U, -4.47.
Regarding G61A U116G A121U, the “polymerase ribozyme fitness (log ratio)” value was determined as 0.807.
The result for G61A A83G G113A U130G reads -1.85; that for G60U C115A U125G, 0.39.
The result for G60U C94A reads -0.596; that for G61A G77A C89U U126A, -2.77.
The result for G60C C102A reads -3.75; that for G60C U96A C101A A119U, -4.66; that for G61A C88U A105G, -2.9.
Turning to G61A U112C U129A, the “polymerase ribozyme fitness (log ratio)” value was 1.39.
In the case of G61C A74U, the “polymerase ribozyme fitness (log ratio)” value was -4.43.
The result for G60U A83C G117A reads -2.26.
As for G61C G117A, the “polymerase ribozyme fitness (log ratio)” value was -2.2.
As to G61U C123U, the “polymerase ribozyme fitness (log ratio)” value was determined as 1.8.
As for G60U G117A, the “polymerase ribozyme fitness (log ratio)” value is -0.487.
For G60U G117C the value was -3.52; for G61A U78G C123A U133A, 0.482; for G60U G110A, -1.
For G60U G110U the value was -0.553.
Take G61A G120A U133A: the “polymerase ribozyme fitness (log ratio)” value was found to be 0.274.
The result for G60U C76U reads -2.74; that for G61A C70G, -4.02.
For G61U C99A C115A C124A the value was -4.46.
The result for G61A A111C reads -0.072.
As to G61U A91G G93A A105U G117U, the “polymerase ribozyme fitness (log ratio)” value is -6.5.
The result for G61C C86A reads -2.15.
The result for G60U U112A reads 1.6; that for G61C G128A, -3.41; that for G61C G128U, -3.46.
Take G61C C89A A121G: the “polymerase ribozyme fitness (log ratio)” value is -2.4.
The result for G61A A108U G120U reads -6.8; that for G61U A83C C89G, -1.83.
Take G61A C101A U116A G128C: the “polymerase ribozyme fitness (log ratio)” value is -6.04.
For G60U C79G C114U the value was -4.12; for G60C G77U, -0.19; for G61U C97A A100C, -3.32.
For G60C C115A G120U the value was -0.0517; for G61U C94G, -0.934.
For G61C C64G A111C the value was -6.11; for G61A C64U, -1.86.
For the variant G61A C86U U116A G117A, the “polymerase ribozyme fitness (log ratio)” value is -2.15.
For G60C U112G U116C the value was -2.47; for G61A C104A, -1.95.
The result for G61C C79A A95G G127A reads -3.63; that for G60C U131A, -1.69.
G61U C94U U112A C115G: the “polymerase ribozyme fitness (log ratio)” value was -0.199.
The result for G60U U78C reads -0.915; that for G61U G110C, -2.85.
For the variant G61A C88U, the “polymerase ribozyme fitness (log ratio)” value is -0.64.
For G60U C62G A83C the value was -0.657; for G60U G69A, -4.86; for G60C U130A, 0.137.
The result for G61C C114A reads -2.18; that for G61C U87A, -1.83; that for G61A C97A, -3.78.
The result for G61C U106C reads -2.89; that for G61A A121G, 1.21.
In the case of G61U A103G, the “polymerase ribozyme fitness (log ratio)” value was -4.75.
The result for G61A C73A G127A reads -1.74; that for G61C C79U G117A G128A, -4.76.
For G61C U87A C102A the value was -5.28; for G61A U129G U130A, -2.53; for G61A G107A, -3.6.
The result for G60U A83U reads -0.0168; that for G60U A83C, 0.15.
For G60U A100C, the “polymerase ribozyme fitness (log ratio)” value is -1.26.
For G61A G69C U116C the value was -4.59; for G61A U87C, -0.201.
The result for G60U G93U A108G G120U reads -3.22; that for G60C U129C, -0.277; that for G61A A111U U116C, -4.5.
For G61C C101G U112C the value was -2.46.
G61A C72A: the “polymerase ribozyme fitness (log ratio)” value was -0.462.
The result for G60U C85G C102A reads -2.17; that for G61A G77A A95U, -1.47; that for G60U C89G U96G U129A, -3.9.
The result for G61A C124G reads 1.77.
For G60U A118C the value was -2.43; for G60U A118U, -0.552.
Consider G61C A66U, for which the “polymerase ribozyme fitness (log ratio)” value was -0.911.
The result for G61A U106G C114U reads -3.24.
In the case of G61A G113C G128U, the “polymerase ribozyme fitness (log ratio)” value was -4.09.
The result for G61U A75G C82G A100C G113U reads -5.51; that for G60U C104A, -1.7.
The result for G61A G71U reads -1.6; that for G60C G110C, -4.39.
With G61A C88G G120A A121C G135U, the “polymerase ribozyme fitness (log ratio)” value is -0.364.
For G61U C79A C104U the value was -0.851; for G61A C88G C104U C123G, 1.29.
The result for G61C A84U reads -1.95.
Turning to G61U C70G, the “polymerase ribozyme fitness (log ratio)” value was -4.08.
The result for G60U A74U G110U G127A reads -4.43; that for G61C A111G, -0.983.
The result for G61C A111C reads -1.98; that for G61A C85G, 0.134; that for G61U C86G, -1.55.
The result for G61U A66C reads -3.18; that for G61C A83U G113C G120U U132A, -4.78.
For the variant G60U C82G, the “polymerase ribozyme fitness (log ratio)” value is -1.12.
For the variant G60C G61C, the “polymerase ribozyme fitness (log ratio)” value was -1.72.
The result for G61A C104A G110A reads -3.83; that for G61C G122A, -2.5.
The result for G61A A100C reads -0.823.
For G61A C115A U129A U132A the value was -3.87; for G61C U78C U133A, -3.51.
In the case of G61A G69A, the “polymerase ribozyme fitness (log ratio)” value is -4.21.
The result for G61A C64U U81G G120U reads -7.13.
For G60C C123G the value was 1.61; for G61A A111U G128C U133G, -4.57.
The result for G61U A121U reads 1.48; that for G61U C80A, -2.59.
As for G60U U112G U116C, the “polymerase ribozyme fitness (log ratio)” value is -1.99.
The result for G60U G61C reads -1.45; that for G61A U92C, -0.505; that for G60U C101A, -0.256.
For G61C G120A the value was 0.0588.
Take G60C G107A: the “polymerase ribozyme fitness (log ratio)” value was -5.47.
With G60C G107U, the “polymerase ribozyme fitness (log ratio)” value was -4.16.
The result for G61A C102U reads -1.04; that for G60U C101A C123G, 0.75; that for G60C U106C, -0.702.
The result for G60C U106G reads -3.41; that for G61U A66C C114A, -2.88; that for G60C C99U, -4.01.
The result for G61C U78A G93A U96A reads -1.93; that for G60C G61A C101A C123A U129A, -4.67; that for G61U C114A, -1.12.
With G60C U109G G120A, the “polymerase ribozyme fitness (log ratio)” value is -5.9.
The result for G61A G128C reads -1.93; that for G61A C88G C98G C123G, -6.3.
As to G61A C88U A100U G120A, the “polymerase ribozyme fitness (log ratio)” value is -0.447.
For G60C C124U G135A the value was 2.05.
The result for G61C U78G reads -4.7.
The result for G61A C64U C72U A91U reads -1.32.
Turning to G61C C88U A90C G110U, the “polymerase ribozyme fitness (log ratio)” value is -5.87.
As to G60U G63A C97A C99A A111U G122U U130A, the “polymerase ribozyme fitness (log ratio)” value was -6.95.
The result for G61C G107A reads -6.66; that for G61A C73U A91C C101A, -2.91.
The result for G60U G120A C124A reads 1.48.
For the variant G60U A75U U87C, the “polymerase ribozyme fitness (log ratio)” value came out at 0.354.
With G61C C89A, the “polymerase ribozyme fitness (log ratio)” value is -3.5.
For G61A A75U U96G A121G U129C G135U the value was 0.938; for G60U C85A A103U A111C, -4.74.
The result for G61C C85U reads -1.81; that for G61A C80A, -3.47.
The result for G60U U87A reads 0.377; that for G61C U129A, -3.33; that for G60U U130C, 0.326.
For G60U C102U, the “polymerase ribozyme fitness (log ratio)” value is -1.09.
The result for G60C G93U C114A reads -2.51; that for G61A C98U G120U, -0.011.
For the variant G61U C124A, the “polymerase ribozyme fitness (log ratio)” value came out at 1.54.
For G60C C104A, the “polymerase ribozyme fitness (log ratio)” value is -2.18.
Take G60U A68G: the “polymerase ribozyme fitness (log ratio)” value was -3.02.
